Data taken from patent publication US20190119347A1 (HANMI PHARM, published 2019).
Bridge positions count the residues as written; N and C are the ends. Square brackets hold non-standard residues; d marks the D form. Ends that are not written are not given here. Aib = CC(C)(N)C(=O)O

Molecular target: human glucagon receptor (human, UniProt P47871 26-477)
Assay: cell-based or functional assay

human glucagon receptor, sequence (P47871 26-477): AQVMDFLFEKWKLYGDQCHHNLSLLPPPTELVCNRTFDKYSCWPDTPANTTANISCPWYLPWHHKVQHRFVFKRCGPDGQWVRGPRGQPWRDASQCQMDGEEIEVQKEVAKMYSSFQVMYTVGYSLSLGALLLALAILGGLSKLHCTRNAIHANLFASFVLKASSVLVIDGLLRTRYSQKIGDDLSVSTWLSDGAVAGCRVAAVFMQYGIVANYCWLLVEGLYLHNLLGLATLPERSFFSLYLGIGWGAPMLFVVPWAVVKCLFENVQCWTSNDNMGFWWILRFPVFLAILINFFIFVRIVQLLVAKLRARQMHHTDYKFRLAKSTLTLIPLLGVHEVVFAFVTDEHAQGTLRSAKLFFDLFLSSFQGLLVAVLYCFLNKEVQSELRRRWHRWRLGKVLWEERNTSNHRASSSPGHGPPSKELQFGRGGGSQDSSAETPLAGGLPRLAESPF

B1: glucagon derivative of SEQ ID NO: 37 (peptide)
peptide: Y[Aib]QGTFTSDYSKYLDERRAKEFVQWLMNTC
modifications: lactam 16-20
In vitro Activity (Relative Activity to SEQ ID NO: 1, %); cAMP assay, from EC50: 776%
